Consider one protein from patent US20030219857.

For series [1], the target named is bovine serum albumin (BSA), native (UniProt P02769).
Series [2] has as its target glucose oxidase (UniProt P13006).
The test system of series [3] is histone protein, native.
In series [4] the target is modified bovine serum albumin (denatured and partially refolded) (UniProt P02769).
For series [5], the system named is modified histone H3 protein (denatured and partially refolded).
Series [6] concerns the target modified ovalbumin (denatured and partially refolded) (UniProt P01012).
Series [7] deals with myelin basic protein (MBP).
Sequence of myelin basic protein (MBP) (P02687 whole entry): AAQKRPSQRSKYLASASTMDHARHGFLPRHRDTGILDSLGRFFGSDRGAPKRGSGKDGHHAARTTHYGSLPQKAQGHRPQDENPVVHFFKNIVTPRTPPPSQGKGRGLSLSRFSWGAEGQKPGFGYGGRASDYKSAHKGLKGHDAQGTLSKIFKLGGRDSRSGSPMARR
Series [8] deals with ovalbumin, native (UniProt P01012).
Sequence of ovalbumin, native (P01012 2-386): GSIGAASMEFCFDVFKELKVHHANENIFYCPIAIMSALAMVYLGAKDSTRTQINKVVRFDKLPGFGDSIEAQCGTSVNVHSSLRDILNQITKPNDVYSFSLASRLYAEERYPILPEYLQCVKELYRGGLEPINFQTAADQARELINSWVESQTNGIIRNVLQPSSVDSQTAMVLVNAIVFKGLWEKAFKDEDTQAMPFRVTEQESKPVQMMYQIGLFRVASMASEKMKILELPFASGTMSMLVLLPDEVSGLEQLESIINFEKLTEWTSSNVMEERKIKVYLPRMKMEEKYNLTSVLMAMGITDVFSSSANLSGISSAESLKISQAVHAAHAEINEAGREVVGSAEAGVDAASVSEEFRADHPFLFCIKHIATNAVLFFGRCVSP
The subject of series [9] is recombinant serum albumin.
Series [10] concerns synthetic Bovine Serum Albumin peptide 5 (BSA5).
In series [11] the test system is β-amyloid peptide (1-42).
The target of series [12] is T1, β-casein (UniProt P02666).
T1 sequence: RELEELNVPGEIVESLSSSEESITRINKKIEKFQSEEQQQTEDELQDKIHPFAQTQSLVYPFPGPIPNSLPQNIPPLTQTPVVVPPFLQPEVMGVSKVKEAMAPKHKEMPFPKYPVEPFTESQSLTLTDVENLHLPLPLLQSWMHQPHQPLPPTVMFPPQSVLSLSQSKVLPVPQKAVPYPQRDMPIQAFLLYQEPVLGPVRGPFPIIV

Sequence of glucose oxidase (P13006 23-605): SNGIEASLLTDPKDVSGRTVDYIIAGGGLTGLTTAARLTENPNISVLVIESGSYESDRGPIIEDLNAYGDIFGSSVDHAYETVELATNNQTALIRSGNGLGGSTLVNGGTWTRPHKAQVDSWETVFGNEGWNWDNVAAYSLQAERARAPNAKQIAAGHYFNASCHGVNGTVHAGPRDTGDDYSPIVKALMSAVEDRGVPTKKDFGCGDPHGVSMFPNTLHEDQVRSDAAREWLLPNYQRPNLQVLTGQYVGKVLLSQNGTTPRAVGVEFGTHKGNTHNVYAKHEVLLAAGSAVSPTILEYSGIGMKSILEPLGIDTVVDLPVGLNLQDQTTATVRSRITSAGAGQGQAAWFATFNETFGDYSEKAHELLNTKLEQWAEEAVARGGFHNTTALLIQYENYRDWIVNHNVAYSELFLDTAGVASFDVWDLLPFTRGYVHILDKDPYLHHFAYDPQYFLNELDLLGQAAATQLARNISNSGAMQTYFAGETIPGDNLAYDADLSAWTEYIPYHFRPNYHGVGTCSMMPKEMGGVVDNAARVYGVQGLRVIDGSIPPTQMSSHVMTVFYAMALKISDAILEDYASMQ
Sequence of modified ovalbumin (denatured and partially refolded) (P01012 2-386): as the sequence (P01012 2-386) above
Sequence of recombinant serum albumin (P02768 25-609): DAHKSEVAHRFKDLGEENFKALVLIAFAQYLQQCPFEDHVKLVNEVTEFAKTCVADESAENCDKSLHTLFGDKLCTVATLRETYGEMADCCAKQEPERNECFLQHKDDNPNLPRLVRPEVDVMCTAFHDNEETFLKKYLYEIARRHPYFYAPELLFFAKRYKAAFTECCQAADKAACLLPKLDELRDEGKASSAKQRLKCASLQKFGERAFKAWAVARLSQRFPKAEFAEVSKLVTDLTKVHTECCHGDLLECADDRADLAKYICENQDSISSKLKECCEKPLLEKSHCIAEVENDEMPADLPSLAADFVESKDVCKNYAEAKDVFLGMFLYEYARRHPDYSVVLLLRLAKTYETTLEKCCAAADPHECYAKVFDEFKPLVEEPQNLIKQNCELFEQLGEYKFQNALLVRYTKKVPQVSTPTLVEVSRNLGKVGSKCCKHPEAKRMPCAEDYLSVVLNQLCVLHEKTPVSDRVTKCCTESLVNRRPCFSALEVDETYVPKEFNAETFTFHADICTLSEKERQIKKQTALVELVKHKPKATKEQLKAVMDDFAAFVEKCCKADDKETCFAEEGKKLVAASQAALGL
Sequence of bovine serum albumin (BSA), native (P02769 25-607): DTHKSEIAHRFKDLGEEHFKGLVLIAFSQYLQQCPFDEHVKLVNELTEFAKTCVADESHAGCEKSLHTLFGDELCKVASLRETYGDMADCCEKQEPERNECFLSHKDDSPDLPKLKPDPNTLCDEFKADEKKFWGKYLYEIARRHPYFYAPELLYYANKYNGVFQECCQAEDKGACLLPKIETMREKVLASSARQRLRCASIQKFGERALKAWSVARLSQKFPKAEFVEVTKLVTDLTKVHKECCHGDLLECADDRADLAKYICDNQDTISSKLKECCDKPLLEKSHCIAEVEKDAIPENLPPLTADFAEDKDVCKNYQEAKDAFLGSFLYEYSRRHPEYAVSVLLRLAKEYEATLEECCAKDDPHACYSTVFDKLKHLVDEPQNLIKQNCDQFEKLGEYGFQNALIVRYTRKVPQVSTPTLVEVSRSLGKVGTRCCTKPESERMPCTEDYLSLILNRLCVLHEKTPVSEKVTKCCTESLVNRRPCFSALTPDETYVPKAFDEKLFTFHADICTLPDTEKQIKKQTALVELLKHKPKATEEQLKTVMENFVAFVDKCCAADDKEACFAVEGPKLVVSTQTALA
Sequence of modified bovine serum albumin (denatured and partially refolded) (P02769 25-607): as above

B1: recombinant 6X-His-TGase fusion protein of Streptomyces mobaraensis ATCC 29032 (enzyme, UniProt P81453 77-407, looked up)
Protein-glutamine gamma-glutamyltransferase: DSDDRVTPPAEPLDRMPDPYRPSYGRAETVVNNYIRKWQQVYSHRDGRKQQMTEEQREWLSYGCVGVTWVNSGQYPTNRLAFASFDEDRFKNELKNGRPRSGETRAEFEGRVAKESFDEEKGFQRAREVASVMNRALENAHDESAYLDNLKKELANGNDALRNEDARSPFYSALRNTPSFKERNGGNHDPSRMKAVIYSKHFWSGQDRSSSADKRKYGDPDAFRPAPGTGLVDMSRDRNIPRSPTSPGEGFVNFDYGWFGAQTEADADKTVWTHGNHYHAPNGSLGAMHVYESKFRNWSEGYSDFDRGAYVITFIPKSWNTAPDKVKQGWP
modifications: N-terminal 6xHis tag
For the protein B1, the “cross-linking of native non-substrate proteins” value in [1], in series [2], in series [3], in series [7] and in [8] was “there was no cross-linking even in the presence of a large amount of the purified recombinant transglutaminase fusion proteins in the activation solution” throughout. Besides, the “cross-linking seen on SDS-PAGE” value was “complete and partial cross-linking was both observed for native histine H3 protein under the condition tested” in [3]; “only the reactions containing the modified protein species of BSA, histine H3 protein, glucose oxidase, and ovalbumin were cross-linked by the purified recombinant SM TGase” in series [4]; “only the reactions containing the modified protein species of BSA, histine H3 protein, glucose oxidase, and ovalbumin were cross-linked by the purified recombinant SM TGase” in [5]; “only the reactions containing the modified protein species of BSA, histine H3 protein, glucose oxidase, and ovalbumin were cross-linked by the purified recombinant SM TGase” in series [6]; “the cross-linking reaction containing recombinant serum albumin revealed a mixture of very high molecular weight polymers of different length” in series [9]; “the cross-linked (CL) β-casein migrated as a smear on the SDS-PAGE gel indicating a mixture of high molecular weight polymers of different length” in series [12]. Further, the “cross-linking seen on SDS-PAGE, rising amounts of SM TGase” value in series [10] was “increased amount of recombinant SM TGase corresponding to an increase in cross-linked (CL) BSA5 peptide, which run as a large molecular weight polymer on the top of the separating gel”. Besides, the “cross-linking seen on SDS-PAGE, 1, 2 and 3 hours” value in series [11] is “The β-amyloid (1-42) peptide can be cross-linked by the recombinant transglutaminase as shown as a smear of a mixture of cross-linked peptides on the top of the separating gel and the disappearance of the peptide bands at the bottom of the SDS-PAGE”. Besides, the “cross-linking of a mixture of β-casein and glucose oxidase, SDS-PAGE” value in series [12] is recorded as “both protein species can be cross-linked by the purified recombinant SM TGase, as indicated by the disappearance of the two monomer bands”. In addition, the “cross-linking of β-casein seen on SDS-PAGE, 0 mM DTT” value in series [12] is “in the absence of DTT (lane 1 and 2), the recombinant SM TGase had no cross-linking activity on β-casein”. For the same protein, the “cross-linking of β-casein seen on SDS-PAGE, about 2 mM DTT” value in [12] is “the recombinant SM TGase was activated and β-casein run as a mixture of cross-linked polymer and monomer”. Besides, in series [12], the “cross-linking of β-casein seen on SDS-PAGE, about 10 mM DTT” value is recorded as “the catalytic cross-linking activity of SM TGase resulted in cross-linking of all detectable β-casein substrates in the reaction”.
